Experiment [1] addresses T1, F-actin (skeletal muscle actin, polymerised) ( (rabbit or chicken skeletal …, UniProt P68135 1-377)).
Experiment [2] deals with T1, F-actin (skeletal muscle actin, …). This is another data set of the same source.

Like-named read-outs stand apart in the source and are kept apart here.

B1: TD-N-CAP2, human CAP2 helical folded domain with the coiled coil (a.a. 1-29) replaced by the trimerization domain 2L6HC3_6 (other)
chain: GTKYKIKETLKRLEDSLRELRRILEELKEMLERLEKNPDKDVIVEVLKVIVKAIEASVENQRISAENQKALAESDGNCGEVNGVIAGVAPSVEAFDKLMDSMVAEFLKNSRILAGDVETHAEMVHSAFQAQRAFLLMASQYQQPHENDVAALLKPISEKIQEIQTFRERNRGSNMFNHLSAVSESIPALGWIAVSPKPGPYVKEMNDAATFYTNRVLKDYKHSDLRHVDWVKSYLNIWSELQAYIKEHHTTGLTWSKTGPVASTVS
A word on the Kd: it is the equilibrium constant for the complex coming apart. Low readings indicate higher affinity, high ones lower affinity. With B1, in experiment [1], the Kd came to 0.68 µM.

B2: ΔCC-N-CAP2, helical folded domain of human CAP2 with the coiled coil deleted (a.a. 30-220) (domain or fragment)
chain: GNCGEVNGVIAGVAPSVEAFDKLMDSMVAEFLKNSRILAGDVETHAEMVHSAFQAQRAFLLMASQYQQPHENDVAALLKPISEKIQEIQTFRERNRGSNMFNHLSAVSESIPALGWIAVSPKPGPYVKEMNDAATFYTNRVLKDYKHSDLRHVDWVKSYLNIWSELQAYIKEHHTTGLTWSKTGPVASTVS
With B2, the affinity in experiment [1], expressed as Kd, was 21.9 µM.

B3: DD-N-CAP1, human CAP1 helical folded domain with the coiled coil (a.a. 1-29) replaced by the dimerization domain 2L4HC2_23 (other)
chain: GTRTEIIRELERSLREQEELAKRLKELLRELERLQREGSSDEDVRELLREIKELVEEIEKLAREQKYLVEELKRQDGYADSPSKAGAAPYVQAFDSLLAGPVAEYLKISKEIGGDVQKHAEMVHTGLKLERALLVTASQCQQPAENKLSDLLAPISEQIKEVITFREKNRGSKLFNHLSAVSESIQALGWVAMAPKPGPYVKEMNDAAMFYTNRVLKEYKDVDKKHVDWVKAYLSIWTELQAYIKEFHTTGLAWSKTGPVAKELSGL
For the molecule B3, the Kd in experiment [2] came to 3.42 µM.

B4: TD-N-CAP1, human CAP1 helical folded domain with the coiled coil (a.a. 1-29) replaced by the trimerization domain 2L6HC3_6 (other)
chain: GTKYKIKETLKRLEDSLRELRRILEELKEMLERLEKNPDKDVIVEVLKVIVKAIEASVENQRISAENQKALAESDGYADSPSKAGAAPYVQAFDSLLAGPVAEYLKISKEIGGDVQKHAEMVHTGLKLERALLVTASQCQQPAENKLSDLLAPISEQIKEVITFREKNRGSKLFNHLSAVSESIQALGWVAMAPKPGPYVKEMNDAAMFYTNRVLKEYKDVDKKHVDWVKAYLSIWTELQAYIKEFHTTGLAWSKTGPVAKELSGL
As for B4, the equilibrium dissociation constant (Kd) in experiment [2] came to 2.97 µM.

B5: N-CAP1, N-terminal fragment of human cyclase-associated protein 1 (original coiled coil and helical folded domain) (domain or fragment)
chain: MADMQNLVERLERAVGRLEAVSHTSDMHRGYADSPSKAGAAPYVQAFDSLLAGPVAEYLKISKEIGGDVQKHAEMVHTGLKLERALLVTASQCQQPAENKLSDLLAPISEQIKEVITFREKNRGSKLFNHLSAVSESIQALGWVAMAPKPGPYVKEMNDAAMFYTNRVLKEYKDVDKKHVDWVKAYLSIWTELQAYIKEFHTTGLAWSKTGPVAKELSGL
The molecule B5 showed a dissociation constant (Kd) in experiment [2] of 0.91 µM.

B6: DD-N-CAP2, human CAP2 helical folded domain with the coiled coil (a.a. 1-29) replaced by the dimerization domain 2L4HC2_23 (other)
chain: GTRTEIIRELERSLREQEELAKRLKELLRELERLQREGSSDEDVRELLREIKELVEEIEKLAREQKYLVEELKRQDGNCGEVNGVIAGVAPSVEAFDKLMDSMVAEFLKNSRILAGDVETHAEMVHSAFQAQRAFLLMASQYQQPHENDVAALLKPISEKIQEIQTFRERNRGSNMFNHLSAVSESIPALGWIAVSPKPGPYVKEMNDAATFYTNRVLKDYKHSDLRHVDWVKSYLNIWSELQAYIKEHHTTGLTWSKTGPVASTVS
In turn, B6 yielded a Kd in experiment [1] of 7.11 µM.

B7: ΔCC-N-CAP1, helical folded domain of human CAP1 with the coiled coil (a.a. 1-29) deleted (domain or fragment)
chain: GYADSPSKAGAAPYVQAFDSLLAGPVAEYLKISKEIGGDVQKHAEMVHTGLKLERALLVTASQCQQPAENKLSDLLAPISEQIKEVITFREKNRGSKLFNHLSAVSESIQALGWVAMAPKPGPYVKEMNDAAMFYTNRVLKEYKDVDKKHVDWVKAYLSIWTELQAYIKEFHTTGLAWSKTGPVAKELSGL
As for B7, the affinity in experiment [2], expressed as Kd, was 5.69 µM.

Source of the values: paper PMC6888645 (2019).
